From patent publication US20150344540A1, “NOVEL GLP-1 RECEPTOR AGONISTS WITH CHOLESTEROL EFFLUX ACTIVITY” (NOVO NORDISK A/S, priority 2012, published 2015)
Where no end group is shown, it is not given here. [ ]: non-standard residue; d: D form. Aib = CC(C)(N)C(=O)O

B1: [Aib8,Glu23,Val25,Gln26,Glu34,Ala35,Val36,Ala37]-GLP-1-(7-37)-peptidyl-Glu-Phe-Leu amide (peptide)
peptide: H[Aib]EGTFTSDVSSYLEGEAVQEFIAWLVEAVAEFL-NH2
modifications: N-terminus assumed
SMILES: CC[C@H](C)[C@H](NC(=O)[C@H](Cc1ccccc1)NC(=O)[C@H](CCC(=O)O)NC(=O)[C@H](CCC(N)=O)NC(=O)[C@@H](NC(=O)[C@H](C)NC(=O)[C@H](CCC(=O)O)NC(=O)CNC(=O)[C@H](CCC(=O)O)NC(=O)[C@H](CC(C)C)NC(=O)[C@H](Cc1ccc(O)cc1)NC(=O)[C@H](CO)NC(=O)[C@H](CO)NC(=O)[C@@H](NC(=O)[C@H](CC(=O)O)NC(=O)[C@H](CO)NC(=O)[C@@H](NC(=O)[C@H](Cc1ccccc1)NC(=O)[C@@H](NC(=O)CNC(=O)[C@H](CCC(=O)O)NC(=O)C(C)(C)NC(=O)[C@@H](N)Cc1c[nH]cn1)[C@@H](C)O)[C@@H](C)O)C(C)C)C(C)C)C(=O)N[C@@H](C)C(=O)N[C@@H](Cc1c[nH]c2ccccc12)C(=O)N[C@@H](CC(C)C)C(=O)N[C@H](C(=O)N[C@@H](CCC(=O)O)C(=O)N[C@@H](C)C(=O)N[C@H](C(=O)N[C@@H](C)C(=O)N[C@@H](CCC(=O)O)C(=O)N[C@@H](Cc1ccccc1)C(=O)N[C@@H](CC(C)C)C(N)=O)C(C)C)C(C)C
B2: [Aib8,Glu23,Val25,Gln26,Glu34,Gln35,Aib36,Gln37]-GLP-1-(7-37)-peptidyl-Glu-Phe-Leu amide (peptide)
peptide: H[Aib]EGTFTSDVSSYLEGEAVQEFIAWLVEQ[Aib]QEFL-NH2
modifications: N-terminus assumed
SMILES: CC[C@H](C)[C@H](NC(=O)[C@H](Cc1ccccc1)NC(=O)[C@H](CCC(=O)O)NC(=O)[C@H](CCC(N)=O)NC(=O)[C@@H](NC(=O)[C@H](C)NC(=O)[C@H](CCC(=O)O)NC(=O)CNC(=O)[C@H](CCC(=O)O)NC(=O)[C@H](CC(C)C)NC(=O)[C@H](Cc1ccc(O)cc1)NC(=O)[C@H](CO)NC(=O)[C@H](CO)NC(=O)[C@@H](NC(=O)[C@H](CC(=O)O)NC(=O)[C@H](CO)NC(=O)[C@@H](NC(=O)[C@H](Cc1ccccc1)NC(=O)[C@@H](NC(=O)CNC(=O)[C@H](CCC(=O)O)NC(=O)C(C)(C)NC(=O)[C@@H](N)Cc1c[nH]cn1)[C@@H](C)O)[C@@H](C)O)C(C)C)C(C)C)C(=O)N[C@@H](C)C(=O)N[C@@H](Cc1c[nH]c2ccccc12)C(=O)N[C@@H](CC(C)C)C(=O)N[C@H](C(=O)N[C@@H](CCC(=O)O)C(=O)N[C@@H](CCC(N)=O)C(=O)NC(C)(C)C(=O)N[C@@H](CCC(N)=O)C(=O)N[C@@H](CCC(=O)O)C(=O)N[C@@H](Cc1ccccc1)C(=O)N[C@@H](CC(C)C)C(N)=O)C(C)C
B3: [Aib8,Glu23,Lys24,Val25,Glu30,His31,Glu34,Lys35,Phe36,Lys37]-GLP-1-(7-37)-peptidyl-Glu-Phe-Phe amide (peptide)
peptide: H[Aib]EGTFTSDVSSYLEGEKVKEFIEHLVEKFKEFF-NH2
modifications: N-terminus assumed
SMILES: CC[C@H](C)[C@H](NC(=O)[C@H](Cc1ccccc1)NC(=O)[C@H](CCC(=O)O)NC(=O)[C@H](CCCCN)NC(=O)[C@@H](NC(=O)[C@H](CCCCN)NC(=O)[C@H](CCC(=O)O)NC(=O)CNC(=O)[C@H](CCC(=O)O)NC(=O)[C@H](CC(C)C)NC(=O)[C@H](Cc1ccc(O)cc1)NC(=O)[C@H](CO)NC(=O)[C@H](CO)NC(=O)[C@@H](NC(=O)[C@H](CC(=O)O)NC(=O)[C@H](CO)NC(=O)[C@@H](NC(=O)[C@H](Cc1ccccc1)NC(=O)[C@@H](NC(=O)CNC(=O)[C@H](CCC(=O)O)NC(=O)C(C)(C)NC(=O)[C@@H](N)Cc1c[nH]cn1)[C@@H](C)O)[C@@H](C)O)C(C)C)C(C)C)C(=O)N[C@@H](CCC(=O)O)C(=O)N[C@@H](Cc1c[nH]cn1)C(=O)N[C@@H](CC(C)C)C(=O)N[C@H](C(=O)N[C@@H](CCC(=O)O)C(=O)N[C@@H](CCCCN)C(=O)N[C@@H](Cc1ccccc1)C(=O)N[C@@H](CCCCN)C(=O)N[C@@H](CCC(=O)O)C(=O)N[C@@H](Cc1ccccc1)C(=O)N[C@@H](Cc1ccccc1)C(N)=O)C(C)C
B4: [Aib8,Val25,Glu34,Lys35,Aib36,Lys37]-GLP-1-(7-37)-peptidyl-Glu-Phe-Leu amide (peptide)
peptide: H[Aib]EGTFTSDVSSYLEGQAVKEFIAWLVEK[Aib]KEFL-NH2
modifications: N-terminus assumed
SMILES: CC[C@H](C)[C@H](NC(=O)[C@H](Cc1ccccc1)NC(=O)[C@H](CCC(=O)O)NC(=O)[C@H](CCCCN)NC(=O)[C@@H](NC(=O)[C@H](C)NC(=O)[C@H](CCC(N)=O)NC(=O)CNC(=O)[C@H](CCC(=O)O)NC(=O)[C@H](CC(C)C)NC(=O)[C@H](Cc1ccc(O)cc1)NC(=O)[C@H](CO)NC(=O)[C@H](CO)NC(=O)[C@@H](NC(=O)[C@H](CC(=O)O)NC(=O)[C@H](CO)NC(=O)[C@@H](NC(=O)[C@H](Cc1ccccc1)NC(=O)[C@@H](NC(=O)CNC(=O)[C@H](CCC(=O)O)NC(=O)C(C)(C)NC(=O)[C@@H](N)Cc1c[nH]cn1)[C@@H](C)O)[C@@H](C)O)C(C)C)C(C)C)C(=O)N[C@@H](C)C(=O)N[C@@H](Cc1c[nH]c2ccccc12)C(=O)N[C@@H](CC(C)C)C(=O)N[C@H](C(=O)N[C@@H](CCC(=O)O)C(=O)N[C@@H](CCCCN)C(=O)NC(C)(C)C(=O)N[C@@H](CCCCN)C(=O)N[C@@H](CCC(=O)O)C(=O)N[C@@H](Cc1ccccc1)C(=O)N[C@@H](CC(C)C)C(N)=O)C(C)C
B5: [Aib8,Pro22,Glu23,Val25,Glu34,Lys35,Aib36,Lys37]-GLP-1-(7-37)-peptidyl-Glu-Phe-Leu amide (peptide)
peptide: H[Aib]EGTFTSDVSSYLEPEAVKEFIAWLVEK[Aib]KEFL-NH2
modifications: N-terminus assumed
SMILES: CC[C@H](C)[C@H](NC(=O)[C@H](Cc1ccccc1)NC(=O)[C@H](CCC(=O)O)NC(=O)[C@H](CCCCN)NC(=O)[C@@H](NC(=O)[C@H](C)NC(=O)[C@H](CCC(=O)O)NC(=O)[C@@H]1CCCN1C(=O)[C@H](CCC(=O)O)NC(=O)[C@H](CC(C)C)NC(=O)[C@H](Cc1ccc(O)cc1)NC(=O)[C@H](CO)NC(=O)[C@H](CO)NC(=O)[C@@H](NC(=O)[C@H](CC(=O)O)NC(=O)[C@H](CO)NC(=O)[C@@H](NC(=O)[C@H](Cc1ccccc1)NC(=O)[C@@H](NC(=O)CNC(=O)[C@H](CCC(=O)O)NC(=O)C(C)(C)NC(=O)[C@@H](N)Cc1c[nH]cn1)[C@@H](C)O)[C@@H](C)O)C(C)C)C(C)C)C(=O)N[C@@H](C)C(=O)N[C@@H](Cc1c[nH]c2ccccc12)C(=O)N[C@@H](CC(C)C)C(=O)N[C@H](C(=O)N[C@@H](CCC(=O)O)C(=O)N[C@@H](CCCCN)C(=O)NC(C)(C)C(=O)N[C@@H](CCCCN)C(=O)N[C@@H](CCC(=O)O)C(=O)N[C@@H](Cc1ccccc1)C(=O)N[C@@H](CC(C)C)C(N)=O)C(C)C
B6: [Aib8,Val25,Gln27,Gln34,Lys35,Aib36,Lys37]-GLP-1-(7-37)-peptidyl-Gln-Phe-Leu amide (peptide)
peptide: H[Aib]EGTFTSDVSSYLEGQAVKQFIAWLVQK[Aib]KQFL-NH2
modifications: N-terminus assumed
SMILES: CC[C@H](C)[C@H](NC(=O)[C@H](Cc1ccccc1)NC(=O)[C@H](CCC(N)=O)NC(=O)[C@H](CCCCN)NC(=O)[C@@H](NC(=O)[C@H](C)NC(=O)[C@H](CCC(N)=O)NC(=O)CNC(=O)[C@H](CCC(=O)O)NC(=O)[C@H](CC(C)C)NC(=O)[C@H](Cc1ccc(O)cc1)NC(=O)[C@H](CO)NC(=O)[C@H](CO)NC(=O)[C@@H](NC(=O)[C@H](CC(=O)O)NC(=O)[C@H](CO)NC(=O)[C@@H](NC(=O)[C@H](Cc1ccccc1)NC(=O)[C@@H](NC(=O)CNC(=O)[C@H](CCC(=O)O)NC(=O)C(C)(C)NC(=O)[C@@H](N)Cc1c[nH]cn1)[C@@H](C)O)[C@@H](C)O)C(C)C)C(C)C)C(=O)N[C@@H](C)C(=O)N[C@@H](Cc1c[nH]c2ccccc12)C(=O)N[C@@H](CC(C)C)C(=O)N[C@H](C(=O)N[C@@H](CCC(N)=O)C(=O)N[C@@H](CCCCN)C(=O)NC(C)(C)C(=O)N[C@@H](CCCCN)C(=O)N[C@@H](CCC(N)=O)C(=O)N[C@@H](Cc1ccccc1)C(=O)N[C@@H](CC(C)C)C(N)=O)C(C)C
B7: [Aib8,Glu23,Glu34,Lys35,Aib36,Lys37]-GLP-1-(7-37)-peptidyl-Glu-Phe-Leu amide (peptide)
peptide: H[Aib]EGTFTSDVSSYLEGEAAKEFIAWLVEK[Aib]KEFL-NH2
modifications: N-terminus assumed
SMILES: CC[C@H](C)[C@H](NC(=O)[C@H](Cc1ccccc1)NC(=O)[C@H](CCC(=O)O)NC(=O)[C@H](CCCCN)NC(=O)[C@H](C)NC(=O)[C@H](C)NC(=O)[C@H](CCC(=O)O)NC(=O)CNC(=O)[C@H](CCC(=O)O)NC(=O)[C@H](CC(C)C)NC(=O)[C@H](Cc1ccc(O)cc1)NC(=O)[C@H](CO)NC(=O)[C@H](CO)NC(=O)[C@@H](NC(=O)[C@H](CC(=O)O)NC(=O)[C@H](CO)NC(=O)[C@@H](NC(=O)[C@H](Cc1ccccc1)NC(=O)[C@@H](NC(=O)CNC(=O)[C@H](CCC(=O)O)NC(=O)C(C)(C)NC(=O)[C@@H](N)Cc1c[nH]cn1)[C@@H](C)O)[C@@H](C)O)C(C)C)C(=O)N[C@@H](C)C(=O)N[C@@H](Cc1c[nH]c2ccccc12)C(=O)N[C@@H](CC(C)C)C(=O)N[C@H](C(=O)N[C@@H](CCC(=O)O)C(=O)N[C@@H](CCCCN)C(=O)NC(C)(C)C(=O)N[C@@H](CCCCN)C(=O)N[C@@H](CCC(=O)O)C(=O)N[C@@H](Cc1ccccc1)C(=O)N[C@@H](CC(C)C)C(N)=O)C(C)C

The binders below were run against human GLP-1 receptor (human, UniProt P43220) (assay: cell-based or functional assay).

| Binder | CRE luciferase EC50, 0% HSA [nM] | CRE luciferase EC50, 1% HSA [nM] |
| --- | --- | --- |
| B1 | 0.622 | 0.273 |
| B2 | 0.156 | 0.04 |
| B3 | 5.42 | 1.16 |
| B4 | 0.161 | 0.074 |
| B5 | 7.53 | 0.936 |
| B6 | 0.601 | 0.229 |
| HAEGTFTSDVSSYLEGQKAKEFIAWLVEGVKEFL-NH2 [[Lys24,Glu34,Val36,Lys37]-GLP-1-(7-37)-peptidyl-Glu-Phe-Leu amide] | 0.702 | 0.112 |
| HAEGTFTSDVSSYLEGQAAKEFIAWLVEKVKEFL-NH2 [[Glu34,Lys35,Val36,Lys37]-GLP-1-(7-37)-peptidyl-Glu-Phe-Leu amide] | 0.116 | 0.023 |
| HAEGTFTSDVSSYLEGQAAKEFIAWLVEKVKEFLE-NH2 [[Glu34,Lys35,Val36,Lys37]-GLP-1-(7-37)-peptidyl-Glu-Phe-Leu-Glu amide] | 0.114 | 0.028 |
| B7 | 0.163 | 0.143 |
| HAEGTFTSDVSSYLEGQAAKEFIAWLVEKVKEHL-NH2 [[Glu34,Lys35,Val36,Lys37]-GLP-1-(7-37)-peptidyl-Glu-His-Leu amide] | 0.04 | 0.01 |
